The results in this text go back to PMC2193258.

Test [1] concerns the target glycocalicin (the soluble extracellular domain of platelet glycoprotein Ibα) (human) (UniProt P07359). Nature of the test: cell adhesion assay, competition.
Test [2] deals with Mac-1 (αMβ2, CD11b/CD18) on THP-1 monocytic cells (human (endogenous in THP-1)), P11215. Nature of the test: cell adhesion assay, competition. Conditions: remark: other sources report otherwise.

Sequence of UniProt P07359 (P07359 17-531): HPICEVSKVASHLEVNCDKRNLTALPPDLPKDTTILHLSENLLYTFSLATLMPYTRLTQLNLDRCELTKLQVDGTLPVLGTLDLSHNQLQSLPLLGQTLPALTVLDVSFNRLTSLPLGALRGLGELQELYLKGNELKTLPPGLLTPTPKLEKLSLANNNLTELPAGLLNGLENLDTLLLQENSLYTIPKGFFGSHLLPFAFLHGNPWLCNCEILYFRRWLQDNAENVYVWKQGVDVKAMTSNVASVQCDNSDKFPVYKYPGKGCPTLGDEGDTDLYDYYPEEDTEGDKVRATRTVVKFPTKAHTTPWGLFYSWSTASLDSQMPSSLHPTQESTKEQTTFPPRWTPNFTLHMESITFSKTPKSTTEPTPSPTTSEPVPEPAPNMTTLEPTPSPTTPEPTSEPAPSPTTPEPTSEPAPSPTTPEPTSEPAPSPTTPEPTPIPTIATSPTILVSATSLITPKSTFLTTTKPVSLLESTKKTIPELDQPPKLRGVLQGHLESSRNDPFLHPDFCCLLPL

On to “39/34-kD dispase fragment of vWf encompassing the A1 domain (Leu480–Gly718) (domain or fragment)”, for which, in test [1], the percent inhibition of THP-1 adhesion to GP Ibα was found to be 83%.

B1: human fibrinogen, P02671-2 20-644; P02675 31-491; P02679-2 27-437 (complex)
chain 1: ADSGEGDFLAEGGGVRGPRVVERHQSACKDSDWPFCSDEDWNYKCPSGCRMKGLIDEVNQDFTNRINKLKNSLFEYQKNNKDSHSLTTNIMEILRGDFSSANNRDNTYNRVSEDLRSRIEVLKRKVIEKVQHIQLLQKNVRAQLVDMKRLEVDIDIKIRSCRGSCSRALAREVDLKDYEDQQKQLEQVIAKDLLPSRDRQHLPLIKMKPVPDLVPGNFKSQLQKVPPEWKALTDMPQMRMELERPGGNEITRGGSTSYGTGSETESPRNPSSAGSWNSGSSGPGSTGNRNPGSSGTGGTATWKPGSSGPGSTGSWNSGSSGTGSTGNQNPGSPRPGSTGTWNPGSSERGSAGHWTSESSVSGSTGQWHSESGSFRPDSPGSGNARPNNPDWGTFEEVSGNVSPGTRREYHTEKLVTSKGDKELRTGKEKVTSGSTTTTRRSCSKTVTKTVIGPDGHKEVTKEVVTSEDGSDCPEAMDLGTLSGIGTLDGFRHRHPDEAAFFDTASTGKTFPGFFSPMLGEFVSETESRGSESGIFTNTKESSSHHPGIAEFPSRGKSSSYSKQFTSSTSYNRGDSTFESKSYKMADEAGSEADHEGTHSTKRGHAKSRPVRGIHTSPLGKPSLSP
chain 2: QGVNDNEEGFFSARGHRPLDKKREEAPSLRPAPPPISGGGYRARPAKAAATQKKVERKAPDAGGCLHADPDLGVLCPTGCQLQEALLQQERPIRNSVDELNNNVEAVSQTSSSSFQYMYLLKDLWQKRQKQVKDNENVVNEYSSELEKHQLYIDETVNSNIPTNLRVLRSILENLRSKIQKLESDVSAQMEYCRTPCTVSCNIPVVSGKECEEIIRKGGETSEMYLIQPDSSVKPYRVYCDMNTENGGWTVIQNRQDGSVDFGRKWDPYKQGFGNVATNTDGKNYCGLPGEYWLGNDKISQLTRMGPTELLIEMEDWKGDKVKAHYGGFTVQNEANKYQISVNKYRGTAGNALMDGASQLMGENRTMTIHNGMFFSTYDRDNDGWLTSDPRKQCSKEDGGGWWYNRCHAANPNGRYYWGGQYTWDMAKHGTDDGVVWMNWKGSWYSMRKMSMKIRPFFPQQ
chain 3: YVATRDNCCILDERFGSYCPTTCGIADFLSTYQTKVDKDLQSLEDILHQVENKTSEVKQLIKAIQLTYNPDESSKPNMIDAATLKSRKMLEEIMKYEASILTHDSSIRYLQEIYNSNNQKIVNLKEKVAQLEAQCQEPCKDTVQIHDITGKDCQDIANKGAKQSGLYFIKPLKANQQFLVYCEIDGSGNGWTVFQKRLDGSVDFKKNWIQYKEGFGHLSPTGTTEFWLGNEKIHLISTQSAIPYALRVELEDWNGRTSTADYAMFKVGPEADKYRLTYAYFAGGDAGDAFDGFDFGDDPSDKFFTSHNGMQFSTWDNDNDKFEGNCAEQDGSGWWMNKCHAGHLNGVYYQGGTYSKASTPNGYDNGIIWATWKTRWYSMKKTTMKIIPFNRLTIGEGQQHHLGGAKQAGDV
B1 registered a percent inhibition of THP-1 adhesion to GP Ibα in test [2] of 99%.
